Broadly, the Km is the concentration of substrate that gives half-maximal velocity. One may read the Vmax as the top rate of the reaction or transport when substrate is in excess. A word on the kcat: it is the number of substrate molecules converted per active site and unit of time at saturation. One may read the kcat/Km as the turnover number divided by the Michaelis constant. Usually stoichiometry N stands for a count of units in the complex or per binding partner.

Values joined by “and” are separate entries in the source; they are usually repeats but may differ in a detail not shown here. Equal values may be shown once.

Substrate in data set [1]: [H][C@]12SCC(COC(C)=O)=C(C(=O)O)N1C(=O)[C@H]2NC(=O)CCC[C@@H](N)C(=O)O
Nature of the data set: acetate release, Michaelis-Menten. Format: biochemical, Thermotoga maritima. The conditions noted are these: 50 mM sodium phosphate pH 6.5, 60 °C.

The data set “SEC” concerns the molecule itself. Nature of the data set: SEC. A general note: In gel filtration, larger molecules generally elute earlier.

B1: Thermotoga maritima acetyl xylan esterase AxeA (enzyme)
chain: MAFFDLPLEELKKYRPERYEEKDFDEFWEETLAESEKFPLDPVFERMESHLKTVEAYDVTFSGYRGQRIKGWLLVPKLEEEKLPCVVQYIGYNGGRGFPHDWLFWPSMGYICFVMDTRGQGSGWLKGDTPDYPEGPVDPQYPGFMTRGILDPRTYYYRRVFTDAVRAVEAAASFPQVDQERIVIAGGSQGGGIALAVSALSKKAKALLCDVPFLCHFRRAVQLVDTHPYAEITNFLKTHRDKEEIVFRTLSYFDGVNFAARAKIPALFSVGLMDNICPPSTVFAAYNYYAGPKEIRIYPYNNHEGGGSFQAVEQVKFLKKLFEKG
With B1, in data set [1], the Km was determined as 4.18 ± 0.97 mM, the Vmax was 19.2 µmol/min/mg, the kcat is 11.8 s⁻¹ and the kcat/Km came to 2830 M⁻¹ s⁻¹. Besides, in the data set “SEC”, the “stoichiometry N” value was 6 and 2.

The record behind these values is PMC3815950 (Microbial biotechnology, 2009).
